The numbers were not newly measured in paper PMC5428663, “Identification of small molecule inhibitors of Interleukin-18” (Scientific Reports, 2017), which cites them from elsewhere.

This series addresses IL-18 (Homo sapiens) (UniProt Q14116).

Chain of IL-18 (Homo sapiens) (Q14116 37-193): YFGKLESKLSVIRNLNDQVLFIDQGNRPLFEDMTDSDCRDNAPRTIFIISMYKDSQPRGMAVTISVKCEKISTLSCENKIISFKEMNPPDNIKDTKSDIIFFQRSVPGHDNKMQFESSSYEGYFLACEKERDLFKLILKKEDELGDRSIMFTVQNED
Chain of IL-18BP (O95998 31-194): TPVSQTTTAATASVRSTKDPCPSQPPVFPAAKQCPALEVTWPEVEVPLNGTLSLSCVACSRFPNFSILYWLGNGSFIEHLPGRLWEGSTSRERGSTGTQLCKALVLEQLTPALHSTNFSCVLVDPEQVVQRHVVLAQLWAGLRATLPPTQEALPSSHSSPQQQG

The Kd is the equilibrium constant for the complex coming apart. For the substance IL-18BP (from UniProt O95998), the Kd was 0.4 nM.
